Source: paper PMC10063554

How the values were obtained:
[1] = molecular target: evolved PTH1R variant P34_05 (human) (UniProt Q03431); test: AlphaScreen or HTRF; binding of 40 nM M-PTH(1–14) to membrane fractions supplemented with increasing concentrations of mini-Gs; data relative to PTH1R without mini-Gs; EC50 of mini-Gs read through ligand occupancy, apparent
[2] = molecular target: evolved PTH1R variant P34_13 (human) (UniProt Q03431); test: as above
[3] = molecular target: SNAP-tagged NTR1-R167L (rat) (UniProt P20789); test: AlphaScreen or HTRF; whole HEK293T cells with SNAP-Lumi4-Tb-labelled NTR1; 2 nM HL488-NT(8–13) tracer with a range of unlabeled NT(8–13); 4 h on ice; 20 mM HEPES pH 7.5, 100 mM NaCl, 3 mM MgCl2, 0.02% BSA
Sequence of UniProt P20789 (P20789 43-424 R167L): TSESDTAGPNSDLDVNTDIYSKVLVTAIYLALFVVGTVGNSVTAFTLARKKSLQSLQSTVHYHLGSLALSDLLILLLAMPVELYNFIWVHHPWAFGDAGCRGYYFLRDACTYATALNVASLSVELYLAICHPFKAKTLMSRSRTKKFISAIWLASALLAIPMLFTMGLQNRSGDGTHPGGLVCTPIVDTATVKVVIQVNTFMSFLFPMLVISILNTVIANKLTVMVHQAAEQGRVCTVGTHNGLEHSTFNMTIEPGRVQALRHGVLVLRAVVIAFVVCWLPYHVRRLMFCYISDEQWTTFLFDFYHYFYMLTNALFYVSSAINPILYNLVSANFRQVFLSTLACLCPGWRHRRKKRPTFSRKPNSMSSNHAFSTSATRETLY

Substance | EC50 [1] [nM] | EC50 [2] [nM] | fold increase in affinity against wild-type NTR1 [3] [fold]
Mini-Gs 393 | 280 | 380 | 
Neurotensin 8–13 (peptide) |  |  | 3
